From PMC3415457, “Cohesin Rings Devoid of Scc3 and Pds5 Maintain Their Stable Association with the DNA” (PLoS Genetics, 2012)

T1: Scc3, recombinant, His6-tagged (S. cerevisiae (budding yeast), UniProt P40541 1-1150)
T1 construct: also called His6-tagged Scc3; source: E. coli BL21 (DE3) RIL, purified (Ni-NTA, gel filtration); not shown: His6, C-terminal, kept
T1 sequence (looked up): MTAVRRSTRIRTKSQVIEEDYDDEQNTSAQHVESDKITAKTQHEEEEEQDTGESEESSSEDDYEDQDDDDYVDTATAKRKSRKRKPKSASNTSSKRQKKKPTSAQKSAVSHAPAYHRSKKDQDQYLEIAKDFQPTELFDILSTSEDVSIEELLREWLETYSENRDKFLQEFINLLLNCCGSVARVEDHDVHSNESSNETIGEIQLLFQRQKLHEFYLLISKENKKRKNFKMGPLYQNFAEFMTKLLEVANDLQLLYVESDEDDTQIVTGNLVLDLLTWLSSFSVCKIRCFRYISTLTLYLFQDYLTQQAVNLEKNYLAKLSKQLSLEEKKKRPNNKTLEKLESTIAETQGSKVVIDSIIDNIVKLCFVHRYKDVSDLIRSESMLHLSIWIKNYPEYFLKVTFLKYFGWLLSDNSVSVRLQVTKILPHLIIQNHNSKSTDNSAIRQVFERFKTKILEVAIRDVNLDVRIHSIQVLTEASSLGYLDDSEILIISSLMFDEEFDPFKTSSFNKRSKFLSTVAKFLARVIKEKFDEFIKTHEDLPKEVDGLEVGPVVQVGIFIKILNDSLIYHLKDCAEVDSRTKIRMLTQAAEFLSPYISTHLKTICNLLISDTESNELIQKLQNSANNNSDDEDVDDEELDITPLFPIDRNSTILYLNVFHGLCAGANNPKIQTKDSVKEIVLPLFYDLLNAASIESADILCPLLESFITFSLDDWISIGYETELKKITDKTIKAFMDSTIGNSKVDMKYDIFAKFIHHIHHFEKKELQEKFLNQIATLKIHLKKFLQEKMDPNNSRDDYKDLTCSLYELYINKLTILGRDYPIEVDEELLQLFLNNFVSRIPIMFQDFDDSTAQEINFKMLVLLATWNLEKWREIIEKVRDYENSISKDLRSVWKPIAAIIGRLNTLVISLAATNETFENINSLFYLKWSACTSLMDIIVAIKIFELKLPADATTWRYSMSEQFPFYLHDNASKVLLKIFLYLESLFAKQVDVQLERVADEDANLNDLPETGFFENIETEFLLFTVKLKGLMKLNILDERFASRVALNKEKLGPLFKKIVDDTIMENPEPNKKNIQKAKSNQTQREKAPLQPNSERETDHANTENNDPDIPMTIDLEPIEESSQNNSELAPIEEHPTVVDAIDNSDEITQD

T2: Pds5, recombinant, His6-tagged (S. cerevisiae (budding yeast), UniProt Q04264 1-1277)
T2 construct: also called His6-tagged Pds5; source: E. coli BL21 (DE3) RIL, purified (Ni-NTA, gel filtration); not shown: His6, C-terminal, kept
T2 sequence (looked up): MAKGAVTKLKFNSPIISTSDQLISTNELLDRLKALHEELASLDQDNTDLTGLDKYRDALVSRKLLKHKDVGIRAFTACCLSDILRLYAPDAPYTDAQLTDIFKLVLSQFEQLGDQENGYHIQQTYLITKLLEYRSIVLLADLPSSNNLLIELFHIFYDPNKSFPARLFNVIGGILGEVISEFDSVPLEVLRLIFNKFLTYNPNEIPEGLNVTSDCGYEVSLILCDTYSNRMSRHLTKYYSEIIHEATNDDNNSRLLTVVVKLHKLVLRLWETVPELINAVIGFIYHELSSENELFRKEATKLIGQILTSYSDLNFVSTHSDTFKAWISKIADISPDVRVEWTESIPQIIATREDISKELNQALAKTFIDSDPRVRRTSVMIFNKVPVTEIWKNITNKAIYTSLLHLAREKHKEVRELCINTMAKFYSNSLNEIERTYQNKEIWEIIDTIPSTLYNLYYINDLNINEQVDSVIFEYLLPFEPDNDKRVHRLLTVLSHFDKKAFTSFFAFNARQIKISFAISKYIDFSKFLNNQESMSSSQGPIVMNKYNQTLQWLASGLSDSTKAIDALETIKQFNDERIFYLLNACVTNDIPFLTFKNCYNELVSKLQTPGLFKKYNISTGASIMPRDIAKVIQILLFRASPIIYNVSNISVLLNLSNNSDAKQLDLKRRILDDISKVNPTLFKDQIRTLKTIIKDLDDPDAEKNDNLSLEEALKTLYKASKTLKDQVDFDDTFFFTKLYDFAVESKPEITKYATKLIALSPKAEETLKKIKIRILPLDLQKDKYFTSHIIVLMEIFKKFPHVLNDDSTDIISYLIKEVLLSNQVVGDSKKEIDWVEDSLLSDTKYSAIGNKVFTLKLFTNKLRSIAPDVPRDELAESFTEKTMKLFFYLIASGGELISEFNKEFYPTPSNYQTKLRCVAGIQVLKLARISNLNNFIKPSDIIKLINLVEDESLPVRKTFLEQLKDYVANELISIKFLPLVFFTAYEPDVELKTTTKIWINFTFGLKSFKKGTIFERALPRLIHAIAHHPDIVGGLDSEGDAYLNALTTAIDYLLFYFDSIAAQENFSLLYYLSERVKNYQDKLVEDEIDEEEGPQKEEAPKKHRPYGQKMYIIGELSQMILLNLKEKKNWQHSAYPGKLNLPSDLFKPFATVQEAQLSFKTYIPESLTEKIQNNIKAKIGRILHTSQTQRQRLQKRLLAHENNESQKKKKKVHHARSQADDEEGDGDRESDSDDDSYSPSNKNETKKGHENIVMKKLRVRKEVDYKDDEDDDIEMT

T3: GST fused to the N-terminal region (aa 1–168) of Scc1 (Saccharomyces cerevisiae (strain ATCC …, UniProt Q12158))
T3 chain: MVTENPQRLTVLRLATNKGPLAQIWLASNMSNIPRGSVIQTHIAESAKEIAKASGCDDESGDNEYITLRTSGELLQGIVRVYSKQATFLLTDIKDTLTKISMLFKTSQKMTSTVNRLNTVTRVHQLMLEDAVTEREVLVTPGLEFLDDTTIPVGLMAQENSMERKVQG

T4: GST fused to the C-terminal region (aa 338–566) of Scc1 (Saccharomyces cerevisiae (strain ATCC …, UniProt Q12158))
T4 chain: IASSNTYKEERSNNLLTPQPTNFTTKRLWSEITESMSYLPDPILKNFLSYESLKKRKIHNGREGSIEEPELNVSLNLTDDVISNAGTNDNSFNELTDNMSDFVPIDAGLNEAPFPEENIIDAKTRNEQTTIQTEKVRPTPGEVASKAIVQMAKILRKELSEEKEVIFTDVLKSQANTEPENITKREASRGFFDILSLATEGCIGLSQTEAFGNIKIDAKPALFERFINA

B1: GST fused to the C-terminal region (aa 338–566) of Scc1 (domain or fragment, S. cerevisiae (budding yeast), UniProt Q12158 338-566, looked up)
chain: T4 chain
notes: Scc1 of budding yeast, C-terminal region, aa 338–566; The methods' sentence on C-terminal His6 tags follows the list of constructs; whether it also holds for the GST fusions is not clear; also called C-terminal part of Scc1; Scc1 C-terminus
B2: GST fused to the N-terminal region (aa 1–168) of Scc1 (domain or fragment, S. cerevisiae (budding yeast), UniProt Q12158 1-168, looked up)
chain: T3 chain
notes: Scc1 of budding yeast, N-terminal region, aa 1–168; The methods' sentence on C-terminal His6 tags follows the list of constructs; whether it also holds for the GST fusions is not clear; also called N-terminal region of Scc1; Scc1 N-terminus
B3: Wpl1, recombinant, His6-tagged (natural protein, S. cerevisiae (budding yeast), UniProt Q99359 1-647, looked up)
chain: MRAYGKRGPVLRTPFRSNKGLPSSSDVEFSDDDVNSVIPDVSSTISSSIADHPIEGLLDEPRKAQDSSSSFDGANEKPSSQLDSKRNDQNVKIITSSDTSMAFMKDEKLSAFNFLDGSKASKRKRRRTYQKHDANITSSIEPDVQDEDSITMHNEFESIRKIYNDINEFILKLPRADDDILNKMLENEMKMDDSIENNSIRTSKDKKYGKFRTILINKNKENEIMGEEVDQKANTLSLNNADNSNAEKEGLTSTNHYNELKNMGDTIKYQDDIEFLLSNSKSNDNTTVPINEYFKKLLNLSLMIINDEEFFQYAKRYFKKEIIKLSFAQFRSDFPELILLQGYLLHKVSESQSDFPPSFDNFSIELSKDDGKIRTKKNKHIKKLSHLNFEDFLRKTQFKTGLYYSLSLWEMHGNLSLDIIKRISILASNKDLFSRHVKTFIPLLEKLITASEFCHMYIEQPEMFDSLISNLNNQFKDMLDDDSLIKILILLTNMEVHNYTLWKEADMIFQSSMNTILESIHPLTDAKVDNILLHLGLCLNICSRENSRLKLDGKLWYDMKTIFVKMIRDGSDTENRLVQGLFYLNFSFLIKQRKENSNLDPGELNLLLVELEAFKSETSQFNEGISNKIEIALNYLKSIYTSERITI
notes: also called Rad61; His6-tagged Wpl1; source: E. coli BL21 (DE3) RIL, purified (Ni-NTA, gel filtration); not shown: His6, C-terminal, kept

Legend:
[1] = molecular target: B3; experiment: pull-down; GST fusions of Scc1 regions on glutathione-agarose beads; His6-tagged Wpl1, Scc3 and Pds5 mixed together and pre-incubated 30 min at 4°C, then with beads 2 h at 4°C; 20 mM HEPES pH 7.5, 100 mM NaCl, 5% glycerol, 5 mM 2-mercaptoethanol; washes with 0.5% NP-40; Western blot with Penta-His antibody; details: both partners purified
[2] = molecular target: T1, Scc3, recombinant, His6-tagged; experiment: as above; details: both partners purified
[3] = molecular target: T2, Pds5, recombinant, His6-tagged; experiment: as above; details: both partners purified
[4] = molecular target: T3, GST fused to the N-terminal region (aa …); experiment: GST pull-down; Pds5 present: Wpl1 bound as Pds5/Wpl1 complex (Wpl1, Scc3 and Pds5 premixed); direct Wpl1-Scc1 binding alone not reported in text
[5] = molecular target: T4, GST fused to the C-terminal region (aa …); experiment: GST pull-down; Scc3 present: Wpl1 bound as Scc3/Wpl1 complex (Wpl1, Scc3 and Pds5 premixed); direct Wpl1-Scc1 binding alone not reported in text
[6] = molecular target: T2, Pds5, recombinant, His6-tagged; experiment: co-sedimentation; 10–30% glycerol gradient; 10 mM HEPES-KOH pH 7.5, 75 mM NaCl, 0.25 mM EDTA; proteins mixed and preincubated 1 h at 4°C; 38000 rpm, 38 h, 4°C, SW40 Ti; fractions on Coomassie-stained SDS-PAGE; details: both partners purified

binding result [1] | binding result [2] | binding result [3] | binding result [4] | binding result [5] | binding result [6] | Binder
binds | binds | – | – | – | – | B1
binds | – | binds | – | – | – | B2
– | – | – | binds | binds | binds | B3
